Test [1] addresses T1, cpHaloΔ.
T1 construct: Used as purified protein; also called original cpHaloΔ; first partial effector
In words: method not stated.

Test [2] deals with T2, cpHaloΔ2.
T2 construct: also called linker04/E20S/N119H/V184E/V197K; improved cpHaloΔ variant
Description: EC50 of the split-HaloTag labeling reaction (fluorescence polarization). A general note: Polarisation of emitted light reports the rotation of a fluorescent probe.

The target of test [3] is LKPG-cpHaloΔ2-PDYE. In words: cell-based or functional assay.
Sequence of LKPG-cpHaloΔ2-PDYE (chain, as listed by the source mutant): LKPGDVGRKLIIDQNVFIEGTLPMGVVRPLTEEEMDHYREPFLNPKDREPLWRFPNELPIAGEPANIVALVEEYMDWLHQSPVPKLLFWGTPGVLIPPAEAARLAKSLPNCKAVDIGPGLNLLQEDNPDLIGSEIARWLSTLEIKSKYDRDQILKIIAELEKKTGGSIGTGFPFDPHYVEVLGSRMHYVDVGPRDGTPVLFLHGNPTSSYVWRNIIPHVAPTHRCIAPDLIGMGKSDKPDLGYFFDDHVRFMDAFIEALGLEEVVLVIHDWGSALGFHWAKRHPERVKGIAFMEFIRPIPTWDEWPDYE

T2 sequence (chain, as listed by the source mutant): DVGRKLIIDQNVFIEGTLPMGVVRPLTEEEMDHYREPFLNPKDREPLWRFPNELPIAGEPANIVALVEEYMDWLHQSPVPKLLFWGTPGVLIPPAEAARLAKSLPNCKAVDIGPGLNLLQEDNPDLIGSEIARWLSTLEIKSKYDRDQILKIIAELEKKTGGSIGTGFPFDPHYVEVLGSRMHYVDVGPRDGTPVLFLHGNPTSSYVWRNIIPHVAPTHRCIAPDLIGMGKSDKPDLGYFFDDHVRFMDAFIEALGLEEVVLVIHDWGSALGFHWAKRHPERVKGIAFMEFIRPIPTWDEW
T1 sequence (chain, as listed by the source mutant): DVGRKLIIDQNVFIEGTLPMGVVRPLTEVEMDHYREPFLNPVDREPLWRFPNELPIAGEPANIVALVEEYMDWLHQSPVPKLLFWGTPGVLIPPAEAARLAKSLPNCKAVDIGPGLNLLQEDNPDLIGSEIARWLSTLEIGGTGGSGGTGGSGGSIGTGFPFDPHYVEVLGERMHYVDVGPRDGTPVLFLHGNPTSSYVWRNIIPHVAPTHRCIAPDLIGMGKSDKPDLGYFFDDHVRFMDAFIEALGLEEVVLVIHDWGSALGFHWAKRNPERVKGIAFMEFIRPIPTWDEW

B1: Hpep1 (peptide)
peptide: ARETFQAFRT
notes: Residues 145-154 of HaloTag; also called original Halo-Peptide; original Hpep (10mer)
In the case of B1, binding in test [1] was put at a Kd of 4.6 mM. In other words, the millimolar range.
As for RGWSWREMFRLFRT [Hpep RGWSWREMFRLFRT], the binding result in test [2] is reported as “binds”. Also, in test [3], the “EC50 of the labeling reaction” value came to 382 pM and the “fold lower EC50 than cpHaloΔ2” value was 6.6 fold.
As for RMWTWREMFRLFRT [Hpep RMWTWREMFRLFRT], the binding result in test [2] is given as “binds”.
On the same count and under the same terms, with RQWSWREMFRLFRT [Hpep RQWSWREMFRLFRT] the entry was “binds”.

Values taken from EP4421166A1 (Max-Planck-Gesellschaft zur Förderung der Wissenschaften …, dated 2024).
